According to US20180119166A1 (UNIVERSITY INDUSTRY FOUNDATION YONSEI UNIVERSITY, published 2018):

B4: 6x-histidine-fused LOS4 (LOS4-His) (enzyme)
chain: MADTVEKVPTVVESSSSSTVEASNSAEKTEPTTEKKKWGDVEDDDDEEEAVSELNSLSIKEEEKPDSILEEPEDSNIKAVTSGDTPYTSASRFEDLNLSPELMKGLYVEMKFEKPSKIQAISLPMIMTPPHKHLIAQAHNGSGKTTCFVLGMLSRVDPTLREPQALCICPTRELANQNMEVLQKMGKFTGITAELAVPDSTRGAPAATRGAPVSAHVVIGTPGTLKKWMAFKRLGLNHLKILVFDEADHMLATDGFRDDSLKIMKDIGRVNPNFQVLLFSATFNETVKDFVARTVKDPNQLFVKREDLALDSVKQYKVVCPKEQNKIEVIKDQIMELGDIGQTIIFVKTKASAQKVHKALAEMGYDVTSVHGNLTESDRDKIVKEFKECLTQVLIATDVIARGFDQQRVNLVVNYNLPTKYETGEPDYEVYLHRVGRAGRFGRKGAVFNLLLDDGWDKEVMEKIEKYFEANVKEIKSWNSEEEYKSALKEAGLLDEHHHHHH
notes: Recombinant protein from E. coli Rosetta (DE3); also called LOS-His

Tests used:
[1] = target: T1, LOS4 (BiFC fusion protein, FIG. 8B) (Arabidopsis, UniProt Q93ZG7 1-496); test: BiFC (FIG. 8), told again in the discussion
T1 construct: not shown: YFP fragment for BiFC
T1 sequence (looked up): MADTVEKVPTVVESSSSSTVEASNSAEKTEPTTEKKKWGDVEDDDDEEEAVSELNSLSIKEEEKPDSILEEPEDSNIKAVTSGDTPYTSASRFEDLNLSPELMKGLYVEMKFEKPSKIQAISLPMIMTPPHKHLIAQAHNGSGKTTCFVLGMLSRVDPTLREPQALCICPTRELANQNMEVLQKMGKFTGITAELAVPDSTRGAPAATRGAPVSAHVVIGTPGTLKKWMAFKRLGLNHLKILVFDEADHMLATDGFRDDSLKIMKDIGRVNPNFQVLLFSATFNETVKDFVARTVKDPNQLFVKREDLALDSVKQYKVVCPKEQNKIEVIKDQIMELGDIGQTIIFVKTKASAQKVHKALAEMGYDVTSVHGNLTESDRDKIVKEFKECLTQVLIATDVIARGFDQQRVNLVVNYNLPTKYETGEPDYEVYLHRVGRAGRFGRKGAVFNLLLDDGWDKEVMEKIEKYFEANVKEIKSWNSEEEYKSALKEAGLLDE

[2] = target: T2, YFP^N-Gle1 (Arabidopsis, UniProt Q0WPZ7 1-611); test: BiFC in N. benthamiana leaves (agroinfiltration), confocal microscopy
T2 construct: BiFC construct expressed in N. benthamiana leaves by agroinfiltration; also called YFP^N-fusion protein of Arabidopsis Gle1; not shown: N-terminal fragment of YFP (YFP^N) for BiFC
T2 sequence: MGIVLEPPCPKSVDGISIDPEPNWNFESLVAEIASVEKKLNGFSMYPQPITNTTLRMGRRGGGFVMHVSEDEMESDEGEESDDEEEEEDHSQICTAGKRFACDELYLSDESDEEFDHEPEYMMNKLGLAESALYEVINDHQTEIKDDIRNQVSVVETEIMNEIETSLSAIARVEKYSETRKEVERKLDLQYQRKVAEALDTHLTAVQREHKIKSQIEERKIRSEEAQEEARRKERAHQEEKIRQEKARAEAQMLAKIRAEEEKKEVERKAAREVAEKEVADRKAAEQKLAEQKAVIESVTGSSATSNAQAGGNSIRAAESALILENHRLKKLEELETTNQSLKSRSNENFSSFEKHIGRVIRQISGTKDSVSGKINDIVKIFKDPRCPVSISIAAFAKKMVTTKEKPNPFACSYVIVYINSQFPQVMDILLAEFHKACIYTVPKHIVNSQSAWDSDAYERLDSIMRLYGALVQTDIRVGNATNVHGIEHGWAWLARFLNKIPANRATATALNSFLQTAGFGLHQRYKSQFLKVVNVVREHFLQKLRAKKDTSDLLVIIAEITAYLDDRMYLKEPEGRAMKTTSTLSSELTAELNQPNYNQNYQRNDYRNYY

[3] = target: B4; test: cell-based or functional assay
[4] = target: maltose-binding protein (MBP) (UniProt P0AEX9 27-392 = MBP); test: in vitro pull-down on nickel resin, Coomassie blue staining
Text: Purified recombinant proteins are stained with Coomassie blue (left). A mixture of the proteins is bound to a nickel resin or amylose resin, and the resin-bound proteins are eluted and then stained with Coomassie blue (right);
After extensive washing of the resins, the bound proteins were eluted with 2×SDS sample buffer, and the eluted proteins were visualized by Coomassie blue staining.

B1: IPK1 (BiFC fusion protein, FIG. 8B) (enzyme, Arabidopsis, UniProt Q93YN9 1-451, looked up)
chain: MEMILEEKDASDWIYRGEGGANLVLAYAGSSPLFVGKVIRIQKARRNDKAIKNANGVVSVLTSDEQHLWRENNELISSPNKEVLEQRYVKNVIIPLLGPKHVDAGVRVSVSKEFLECVDKKVTKQRPLWRVNAANVDTSHDSALILNDHSLFSQGISSGGDCISVEIKPKCGFLPTSRFIGKENMLKTSVSRFKMHQLLKLEYNEISEESEYDPLDLFSGSKESVLEAIKALYSTPQNNFRVFLNGSLILGGSGESTGRTSPEIGYAFEDALKGFIQSEDGHRTECFLQLVSDAVYGSGVLDRLLEIQKLDKLDIEGAIHSYYDLINQPCPICKEGKPLEAELSLHALPLDESLKIVKEYLIAATAKDCSIMISFQSRNAWDSEPSGDYVSLKPTNQTFDYKVHFIDLSLKPLKRMESYYKLDKKIISFYNRKQKAENTAEQIGNSKPSHS
notes: Expressed in N. benthamiana leaves by agroinfiltration; also called inositol 1,3,4,5,6-pentakisphosphate 2-kinase; not shown: YFP fragment for BiFC
B1: binds [1].

B2: LOS4-YFP^C (other, Arabidopsis, UniProt Q93ZG7 1-496, looked up)
chain: MADTVEKVPTVVESSSSSTVEASNSAEKTEPTTEKKKWGDVEDDDDEEEAVSELNSLSIKEEEKPDSILEEPEDSNIKAVTSGDTPYTSASRFEDLNLSPELMKGLYVEMKFEKPSKIQAISLPMIMTPPHKHLIAQAHNGSGKTTCFVLGMLSRVDPTLREPQALCICPTRELANQNMEVLQKMGKFTGITAELAVPDSTRGAPAATRGAPVSAHVVIGTPGTLKKWMAFKRLGLNHLKILVFDEADHMLATDGFRDDSLKIMKDIGRVNPNFQVLLFSATFNETVKDFVARTVKDPNQLFVKREDLALDSVKQYKVVCPKEQNKIEVIKDQIMELGDIGQTIIFVKTKASAQKVHKALAEMGYDVTSVHGNLTESDRDKIVKEFKECLTQVLIATDVIARGFDQQRVNLVVNYNLPTKYETGEPDYEVYLHRVGRAGRFGRKGAVFNLLLDDGWDKEVMEKIEKYFEANVKEIKSWNSEEEYKSALKEAGLLDE
notes: BiFC construct expressed in N. benthamiana leaves by agroinfiltration; also called YFP^C-fusion protein of LOS4; not shown: C-terminal fragment of YFP (YFP^C) for BiFC
B2: binds [2].

B3: maltose-binding protein (MBP)-fused Gle1 (MBP-Gle1) (other, not shown: large carriers)
chain: MGIVLEPPCPKSVDGISIDPEPNWNFESLVAEIASVEKKLNGFSMYPQPITNTTLRMGRRGGGFVMHVSEDEMESDEGEESDDEEEEEDHSQICTAGKRFACDELYLSDESDEEFDHEPEYMMNKLGLAESALYEVINDHQTEIKDDIRNQVSVVETEIMNEIETSLSAIARVEKYSETRKEVERKLDLQYQRKVAEALDTHLTAVQREHKIKSQIEERKIRSEEAQEEARRKERAHQEEKIRQEKARAEAQMLAKIRAEEEKKEVERKAAREVAEKEVADRKAAEQKLAEQKAVIESVTGSSATSNAQAGGNSIRAAESALILENHRLKKLEELETTNQSLKSRSNENFSSFEKHIGRVIRQISGTKDSVSGKINDIVKIFKDPRCPVSISIAAFAKKMVTTKEKPNPFACSYVIVYINSQFPQVMDILLAEFHKACIYTVPKHIVNSQSAWDSDAYERLDSIMRLYGALVQTDIRVGNATNVHGIEHGWAWLARFLNKIPANRATATALNSFLQTAGFGLHQRYKSQFLKVVNVVREHFLQKLRAKKDTSDLLVIIAEITAYLDDRMYLKEPEGRAMKTTSTLSSELTAELNQPNYNQNYQRNDYRNYY
With B3 the “LOS4 ATPase activity with RNA and MBP-Gle1 (2 µM), LOS4-His 1 µM” value [3] was about 3 fold and the “LOS4 ATPase activity with RNA, MBP-Gle1 (2 µM) and InsP6 (10 µM)” value [3] was over 4 fold.

B4: no binding [4].
